From US20060057652A1

Biological target: anaphase promoting complex subunit 1 (APC1) (Homo sapiens) (UniProt Q9H1A4)
Assay: cell-based or functional assay

Chain of anaphase promoting complex subunit 1 (APC1) (Homo sapiens) (Q9H1A4 whole entry, one chain of several): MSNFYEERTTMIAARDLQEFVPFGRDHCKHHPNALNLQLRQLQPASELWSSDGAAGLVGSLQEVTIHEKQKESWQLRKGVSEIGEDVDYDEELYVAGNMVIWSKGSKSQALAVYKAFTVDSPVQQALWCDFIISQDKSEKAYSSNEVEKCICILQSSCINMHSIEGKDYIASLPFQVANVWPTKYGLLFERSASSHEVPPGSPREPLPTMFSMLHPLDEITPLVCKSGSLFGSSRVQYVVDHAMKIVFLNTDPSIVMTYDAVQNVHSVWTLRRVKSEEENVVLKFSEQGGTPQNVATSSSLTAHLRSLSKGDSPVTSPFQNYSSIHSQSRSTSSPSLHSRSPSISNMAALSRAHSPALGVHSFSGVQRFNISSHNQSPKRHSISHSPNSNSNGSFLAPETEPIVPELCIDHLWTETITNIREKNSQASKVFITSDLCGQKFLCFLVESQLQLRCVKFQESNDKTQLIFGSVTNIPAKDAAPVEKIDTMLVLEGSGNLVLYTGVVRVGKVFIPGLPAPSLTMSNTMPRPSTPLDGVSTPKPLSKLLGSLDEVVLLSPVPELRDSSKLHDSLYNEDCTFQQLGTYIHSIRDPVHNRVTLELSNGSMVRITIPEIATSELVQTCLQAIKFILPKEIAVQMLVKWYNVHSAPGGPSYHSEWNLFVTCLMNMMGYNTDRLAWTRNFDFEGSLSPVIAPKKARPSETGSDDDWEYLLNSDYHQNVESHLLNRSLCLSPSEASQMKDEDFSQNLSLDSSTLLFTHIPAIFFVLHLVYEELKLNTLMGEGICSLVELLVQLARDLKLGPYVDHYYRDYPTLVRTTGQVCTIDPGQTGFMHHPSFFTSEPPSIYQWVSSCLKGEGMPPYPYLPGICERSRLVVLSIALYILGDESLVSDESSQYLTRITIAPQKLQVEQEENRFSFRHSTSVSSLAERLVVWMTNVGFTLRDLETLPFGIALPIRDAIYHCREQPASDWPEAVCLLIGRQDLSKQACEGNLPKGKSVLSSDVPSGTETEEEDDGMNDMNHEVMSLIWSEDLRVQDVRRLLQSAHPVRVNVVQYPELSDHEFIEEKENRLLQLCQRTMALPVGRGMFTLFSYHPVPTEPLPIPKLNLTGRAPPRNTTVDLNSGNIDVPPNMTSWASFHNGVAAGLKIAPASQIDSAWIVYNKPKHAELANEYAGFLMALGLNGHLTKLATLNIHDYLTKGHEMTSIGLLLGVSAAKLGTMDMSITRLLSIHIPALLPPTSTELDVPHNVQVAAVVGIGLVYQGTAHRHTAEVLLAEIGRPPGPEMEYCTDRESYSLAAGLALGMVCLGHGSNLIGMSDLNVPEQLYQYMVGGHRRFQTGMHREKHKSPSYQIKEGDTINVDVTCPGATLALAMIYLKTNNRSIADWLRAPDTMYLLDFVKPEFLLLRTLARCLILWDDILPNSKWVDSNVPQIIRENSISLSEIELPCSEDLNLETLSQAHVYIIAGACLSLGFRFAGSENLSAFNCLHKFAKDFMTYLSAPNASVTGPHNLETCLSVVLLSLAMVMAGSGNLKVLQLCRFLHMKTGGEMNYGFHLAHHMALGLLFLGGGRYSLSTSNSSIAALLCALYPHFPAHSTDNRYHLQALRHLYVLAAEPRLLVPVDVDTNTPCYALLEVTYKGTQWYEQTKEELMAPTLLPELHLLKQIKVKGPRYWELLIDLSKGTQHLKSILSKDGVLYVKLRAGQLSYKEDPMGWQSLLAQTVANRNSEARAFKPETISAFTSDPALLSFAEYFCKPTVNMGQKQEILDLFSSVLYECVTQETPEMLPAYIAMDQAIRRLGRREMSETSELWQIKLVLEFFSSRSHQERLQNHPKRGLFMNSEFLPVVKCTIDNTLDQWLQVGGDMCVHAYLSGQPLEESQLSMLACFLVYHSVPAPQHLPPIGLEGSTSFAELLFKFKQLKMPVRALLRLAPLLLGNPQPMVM

## GFP-Ap(82-121) (from UniProt Q99152 82-121)
  percent of wild-type killing activity (apoptotic morphology, H1299 cells) (percent of wild-type killing activity): 55

## GFP-Ap(42-121) (from UniProt Q99152 42-121)
  percent of wild-type killing activity (apoptotic morphology, H1299 cells) (percent of wild-type killing activity): 67
